Laboratory results as given in patent US20210275683A1 (SILVERBACK THERAPEUTICS, published 2021).

T1: Nectin-4 on MDA-MB-175-VII tumor cells (UniProt Q96NY8 32-510, limits assumed)
T1 sequence (looked up): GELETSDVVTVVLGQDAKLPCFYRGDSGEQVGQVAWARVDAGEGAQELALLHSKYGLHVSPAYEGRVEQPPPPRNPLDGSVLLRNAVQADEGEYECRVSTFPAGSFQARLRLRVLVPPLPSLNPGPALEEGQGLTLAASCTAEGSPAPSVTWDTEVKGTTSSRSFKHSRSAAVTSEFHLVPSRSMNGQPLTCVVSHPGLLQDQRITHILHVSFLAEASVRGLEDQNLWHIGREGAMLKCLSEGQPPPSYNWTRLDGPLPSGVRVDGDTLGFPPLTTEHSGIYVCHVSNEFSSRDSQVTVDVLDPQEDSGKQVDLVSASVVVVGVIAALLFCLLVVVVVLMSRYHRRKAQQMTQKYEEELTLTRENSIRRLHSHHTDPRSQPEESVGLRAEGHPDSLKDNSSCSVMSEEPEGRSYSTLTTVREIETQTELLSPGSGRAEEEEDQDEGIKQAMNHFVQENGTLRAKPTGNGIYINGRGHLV

T2: human Nectin-4 on transfected HEK-293 cells (human, UniProt Q96NY8 32-510)
T2 construct: whole, on cells; also called HEK-293 cells transfected with human Nectin-4; Nectin-4-expressing HEK-293 cells
T2 sequence (looked up): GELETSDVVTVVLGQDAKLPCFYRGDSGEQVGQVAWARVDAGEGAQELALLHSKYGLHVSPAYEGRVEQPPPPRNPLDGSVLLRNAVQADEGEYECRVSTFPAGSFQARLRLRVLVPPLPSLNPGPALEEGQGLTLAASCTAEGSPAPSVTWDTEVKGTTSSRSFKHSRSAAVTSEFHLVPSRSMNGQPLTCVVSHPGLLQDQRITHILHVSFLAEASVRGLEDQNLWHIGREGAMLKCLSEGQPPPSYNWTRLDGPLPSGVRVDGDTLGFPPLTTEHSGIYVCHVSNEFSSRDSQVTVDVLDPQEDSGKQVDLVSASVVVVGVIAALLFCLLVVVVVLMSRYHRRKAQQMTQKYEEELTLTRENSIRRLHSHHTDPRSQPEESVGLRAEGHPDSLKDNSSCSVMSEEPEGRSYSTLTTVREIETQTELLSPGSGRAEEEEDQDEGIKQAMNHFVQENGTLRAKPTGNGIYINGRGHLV

T3: cynomolgus Nectin-4 on transfected HEK-293 cells (cynomolgus, UniProt A0A2K5WES1 32-510)
T3 construct: whole, on cells; also called HEK-293 cells transfected with cynomolgus Nectin-4
T3 sequence: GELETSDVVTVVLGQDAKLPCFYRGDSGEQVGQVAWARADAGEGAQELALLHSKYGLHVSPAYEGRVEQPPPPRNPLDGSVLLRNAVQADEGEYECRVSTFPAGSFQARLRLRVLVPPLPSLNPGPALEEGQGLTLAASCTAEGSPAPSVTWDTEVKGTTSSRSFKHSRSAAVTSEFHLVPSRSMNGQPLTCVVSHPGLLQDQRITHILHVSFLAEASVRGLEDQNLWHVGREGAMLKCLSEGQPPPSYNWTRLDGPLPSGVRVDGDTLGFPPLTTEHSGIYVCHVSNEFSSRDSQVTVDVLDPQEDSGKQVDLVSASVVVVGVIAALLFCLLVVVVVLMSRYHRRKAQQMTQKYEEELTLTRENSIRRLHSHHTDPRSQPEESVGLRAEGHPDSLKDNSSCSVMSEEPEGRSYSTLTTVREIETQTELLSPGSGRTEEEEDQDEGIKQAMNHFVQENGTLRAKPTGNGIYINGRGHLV

T4: huNectin-1 ECD-hFc (human, UniProt Q15223 31-355)
T4 construct: extracellular domain; Bought (Sino Biological); also called hFc-tagged human Nectin-1 ECD dimeric protein; not shown: human Fc tag
T4 sequence (looked up): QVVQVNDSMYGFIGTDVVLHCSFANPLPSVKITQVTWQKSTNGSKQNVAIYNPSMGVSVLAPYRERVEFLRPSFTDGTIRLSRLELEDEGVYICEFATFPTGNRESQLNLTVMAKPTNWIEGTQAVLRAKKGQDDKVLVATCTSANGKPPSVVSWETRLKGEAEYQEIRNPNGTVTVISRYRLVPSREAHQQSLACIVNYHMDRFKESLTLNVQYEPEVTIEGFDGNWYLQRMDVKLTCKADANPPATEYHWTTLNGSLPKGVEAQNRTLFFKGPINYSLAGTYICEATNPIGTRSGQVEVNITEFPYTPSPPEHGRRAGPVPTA

T5: huNectin-2 ECD-hFc (human, UniProt Q92692 32-360)
T5 construct: extracellular domain; Bought (Sino Biological); also called hFc-tagged human Nectin-2 ECD dimeric protein; not shown: human Fc tag
T5 sequence (looked up): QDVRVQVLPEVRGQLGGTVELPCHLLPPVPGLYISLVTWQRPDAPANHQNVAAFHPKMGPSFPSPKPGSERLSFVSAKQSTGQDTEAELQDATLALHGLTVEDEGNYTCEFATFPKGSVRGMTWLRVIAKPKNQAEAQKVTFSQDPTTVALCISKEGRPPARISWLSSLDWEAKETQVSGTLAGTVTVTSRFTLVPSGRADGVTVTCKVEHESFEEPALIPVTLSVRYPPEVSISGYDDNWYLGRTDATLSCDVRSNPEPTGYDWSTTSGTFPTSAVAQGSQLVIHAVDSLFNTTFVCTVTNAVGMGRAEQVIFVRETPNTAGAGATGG

T6: huNectin-4 ECD-hFc (human, UniProt Q96NY8 32-349)
T6 construct: extracellular domain; Bought (Sino Biological); also called hFc-tagged human Nectin-4 ECD dimeric protein; human Nectin-4 ECD; not shown: human Fc tag
T6 sequence (looked up): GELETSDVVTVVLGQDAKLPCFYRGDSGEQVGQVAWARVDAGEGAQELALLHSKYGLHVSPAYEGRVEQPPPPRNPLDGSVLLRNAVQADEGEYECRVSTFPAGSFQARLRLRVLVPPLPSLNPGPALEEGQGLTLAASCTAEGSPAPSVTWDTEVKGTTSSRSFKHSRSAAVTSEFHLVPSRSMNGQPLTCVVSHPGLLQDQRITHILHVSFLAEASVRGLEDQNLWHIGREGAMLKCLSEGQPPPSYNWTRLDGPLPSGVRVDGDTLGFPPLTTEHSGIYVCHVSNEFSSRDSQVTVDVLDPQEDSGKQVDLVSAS


Assays:
[1] = target: T1, Nectin-4 on MDA-MB-175-VII tumor cells; assay: cell-based or functional assay
[2] = target: T2, human Nectin-4 on transfected HEK-293 …; assay: flow cytometry on HEK-293 cells transfected with human Nectin-4, anti-huIgG1-PE secondary, MFI (Geo Mean)
Method: (§1) After incubations, cells were washed with FW and then analyzed on a flow cytometer.

[3] = target: T3, cynomolgus Nectin-4 on transfected …; assay: flow cytometry on HEK-293 cells transfected with cynomolgus Nectin-4, anti-huIgG1-PE secondary, MFI (Geo Mean)
Method: as §1

[4] = target: T1, Nectin-4 on MDA-MB-175-VII tumor cells; assay: flow cytometry on MDA-MB-175-VII cells (Nectin-4 expressing tumor cell line), anti-huIgG1-PE secondary, MFI (Geo Mean)
Method: as §1

[5] = target: T4, huNectin-1 ECD-hFc; assay: BLI (Octet Red 96), biotinylated hzD6.2C on streptavidin biosensors, dimeric ECD-hFc in solution
Method: (§2) Analysis of hzD6.2C monoclonal antibody (mAb) for binding to human Nectin-1, Nectin-2, Nectin-3, and Nectin-4 extracellular domains (ECDs) was performed using Octet® Red 96 instrument (ForteBio, Inc.). Biotinylated hzD6.2C mAb was immobilized on streptavidin biosensors and incubated with hFc-tagged human Nectin-1, -2, -3, and -4 ECD dimeric proteins (Sino Biological) at varying concentrations ranging from 1.2 nM to 300 nM in PBS/1% BSA/0.2% Tween 20. The experimental measurements were performed as follows: (1) baseline acquisition (30 s); (2) biotinylated hzD6.2C mAb loading onto streptavidin biosensor (120 s); (3) second baseline acquisition (30 s); (4) association of interacting dimeric Nectin 1/2/3/4 ECD proteins for kₒₙ measurement (90 s); and (5) dissociation of interacting dimeric ECDs for koff measurement (180 s). The interacting dimeric Nectin ECD proteins were used at 5-6 concentrations of 3-fold concentration series. Data were analyzed using Octet® Data Analysis Sofware 9.0 (ForteBio, Inc.) and fitted to the 1:1 binding model. Equilibrium dissociation constants (KD) were calculated by the ratio of […].

[6] = target: T5, huNectin-2 ECD-hFc; assay: as above
Method: as §2

[7] = target: T7, huNectin-3 ECD-hFc (human, UniProt Q9NQS3 58-404); assay: as above
T7 construct: extracellular domain; Bought (Sino Biological); also called hFc-tagged human Nectin-3 ECD dimeric protein; not shown: human Fc tag
Method: as §2

[8] = target: T6, huNectin-4 ECD-hFc; assay: BLI (Octet Red 96), biotinylated hzD6.2C on streptavidin biosensors, dimeric ECD-hFc in solution, 1:1 model, KD with avidity
Method: as §2

T7 sequence (Q9NQS3 58-404): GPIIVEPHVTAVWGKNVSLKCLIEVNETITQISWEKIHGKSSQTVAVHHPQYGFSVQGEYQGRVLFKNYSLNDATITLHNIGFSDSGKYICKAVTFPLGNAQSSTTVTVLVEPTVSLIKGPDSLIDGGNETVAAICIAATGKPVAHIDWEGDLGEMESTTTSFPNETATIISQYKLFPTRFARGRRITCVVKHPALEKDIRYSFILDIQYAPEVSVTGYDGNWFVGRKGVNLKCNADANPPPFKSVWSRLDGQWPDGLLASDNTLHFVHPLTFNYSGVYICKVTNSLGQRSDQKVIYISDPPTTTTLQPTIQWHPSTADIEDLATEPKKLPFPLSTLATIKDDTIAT

Binder | TNF-α production from human PBMCs co-cultured with MDA-MB-175-VII cells, EC50 [1] [nM] | EC50 [2] [mg/L] | EC50 [3] [mg/L] | EC50 [4] [mg/L] | binding result [5] | binding result [6] | binding result [7] | Kd [8] [nM]
hzD6.2C-Compound 2.14 (anti-Nectin-4-TLR8 agonist immunoconjugate) (antibody, V domains shown, hzD6.2C conjugated to linker-TLR8 agonist Compound 2.14) VH: EVQLVESGGGLVQPGGSLRLSCAASGFTFSNYDMSWVRQAPGKGLEWVATISSGGSYTYYVDSVKGRFTISRDNAKNSLYLQMNSLRAEDTAVYYCARQELGSYYAMDYWGQGTTVTVSS VL: DIVMTQTPLSLPVTPGEPASISCRSSQSIVHSNANTYLEWYLQKPGQSPQLLIYKVSNRFSGVPDRFSGSGSGTDFTLKISRVEAEDVGVYYCFQGSHVPYTFGGGTKVEIKR | 0.37 | 0.034 | 0.016 | 0.0095 |  |  |  | 
humanized D6C mAb with hzD6.2C VL (G34A), human IgG1 / human kappa (antibody, V domains shown, also called hzD6.2C mAb) VH: EVQLVESGGGLVQPGGSLRLSCAASGFTFSNYDMSWVRQAPGKGLEWVATISSGGSYTYYVDSVKGRFTISRDNAKNSLYLQMNSLRAEDTAVYYCARQELGSYYAMDYWGQGTTVTVSS VL: DIVMTQTPLSLPVTPGEPASISCRSSQSIVHSNANTYLEWYLQKPGQSPQLLIYKVSNRFSGVPDRFSGSGSGTDFTLKISRVEAEDVGVYYCFQGSHVPYTFGGGTKVEIKR |  | 0.014 | 0.017 | 0.012 | no binding (tested: 1.2 nM to 300 nM) | no binding (tested: 1.2 nM to 300 nM) | no binding (tested: 1.2 nM to 300 nM) | < 0.001
humanized D6C mAb with hzD6.1C VL (I2V), human IgG1 / human kappa (antibody, V domains shown, also called hzD6.IC) VH: EVQLVESGGGLVQPGGSLRLSCAASGFTFSNYDMSWVRQAPGKGLEWVATISSGGSYTYYVDSVKGRFTISRDNAKNSLYLQMNSLRAEDTAVYYCARQELGSYYAMDYWGQGTTVTVSS VL: DVVMTQTPLSLPVTPGEPASISCRSSQSIVHSNGNTYLEWYLQKPGQSPQLLIYKVSNRFSGVPDRFSGSGSGTDFTLKISRVEAEDVGVYYCFQGSHVPYTFGGGTKVEIKR |  | 0.02 | 0.016 | 0.0097 |  |  |  | 
hzD6.1C-Compound 2.14 (anti-Nectin-4-TLR8 agonist immunoconjugate) (antibody, V domains shown, hzD6.1C conjugated to linker-TLR8 agonist Compound 2.14) VH: EVQLVESGGGLVQPGGSLRLSCAASGFTFSNYDMSWVRQAPGKGLEWVATISSGGSYTYYVDSVKGRFTISRDNAKNSLYLQMNSLRAEDTAVYYCARQELGSYYAMDYWGQGTTVTVSS VL: DVVMTQTPLSLPVTPGEPASISCRSSQSIVHSNGNTYLEWYLQKPGQSPQLLIYKVSNRFSGVPDRFSGSGSGTDFTLKISRVEAEDVGVYYCFQGSHVPYTFGGGTKVEIKR | 0.33 | 0.069 | 0.023 | 0.0086 |  |  |  | 
D6C IgG1-Compound 2.14 (parental antibody TLR8 agonist conjugate) (antibody, V domains shown, IgG1) VH: EVMLVESGGALVKPGGSLKLSCVASGFTFSNYDMSWVRQTPEKRLEWVATISSGGSYTYYVDSVKGRFTISRDNARNTLHLQMSSLRSKDTAMYYCARQELGSYYAMDYWGQGTSVTVSS VL: DVVMTQTPLSLPVSLGDQASISCRSSQSIVHSNGNTYLEWYLQKPGQSPKLLIYKVSNRFSGVPDRFSGSGSGTDFTLKISRVEAEDLGVYYCFQGSHVPYTFGGGTKLEIK | 0.83 | 0.049 | 0.019 | 0.011 |  |  |  | 
D6C parental chimeric anti-Nectin-4 antibody (D6C IgG1) (antibody, V domains shown, Called the parental chimeric antibody; also called chimeric D6C) VH: EVMLVESGGALVKPGGSLKLSCVASGFTFSNYDMSWVRQTPEKRLEWVATISSGGSYTYYVDSVKGRFTISRDNARNTLHLQMSSLRSKDTAMYYCARQELGSYYAMDYWGQGTSVTVSS VL: DVVMTQTPLSLPVSLGDQASISCRSSQSIVHSNGNTYLEWYLQKPGQSPKLLIYKVSNRFSGVPDRFSGSGSGTDFTLKISRVEAEDLGVYYCFQGSHVPYTFGGGTKLEIK |  | 0.03 | 0.018 | 0.01 |  |  |  | 
